System: MS2 coat protein
Test: apparent KD of MS2 coat protein; designed switch direction (-1 OFF switch, 1 ON switch): -1; higher = weaker reporter binding
In short: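 Normalised cluster fluorescence was curve-fitted, and each design's median over clusters is its apparent KD. Before this, SNAP-549-labelled MS2 coat protein was titrated from 0.7 or 1.5 nM, doubling to 3 µM, over RNA switches transcribed on Illumina chips by stalled E. coli RNA polymerase. Titrations had no input, 200 uM small-molecule ligand, or an oligonucleotide input, and steps lasted 0.8–1.5 h (lowest) to 10–20 min (highest).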

[1] = Eterna round: R95, input ligand: FMN 200 uM
[2] = Eterna round: R95, input ligand: microRNA oligo, concentration not stated
[3] = Eterna round: R95, input ligand: none
[4] = input ligand: microRNA oligo, concentration not stated

AGUACUAACACGCUAGUGUUAGUACAAUAAGCUUGUGAAACAUGAGGAUCACCCAUGUCCUCAUAAGCUCGUCUUAU [salish99_TOv2_r3_058] (puzzle: Sensor v3, turn-off variant 2)
apparent KD of MS2 coat protein [1]: 16.4 nM
apparent KD of MS2 coat protein [2]: 612 nM
apparent KD of MS2 coat protein [3]: 16.1 nM

AGUACUAACACGGAAGUGUUAGUACUAUAAGCUUGUGUUACAUGAGGAUCACCCAUGUCCUCAUAAGCUCGUCUUAA [Mat - Sensor v3 - Turn-off var 2 - D70] (puzzle: Sensor v3, turn-off variant 2)
apparent KD of MS2 coat protein [1]: 35.1 nM
apparent KD of MS2 coat protein [2]: 127 nM
apparent KD of MS2 coat protein [3]: 36.4 nM

AGUACUAACACGGCAGUGUUAGUACAAUAAGCUUGUGAAACAUGAGGAUCACCCAUGUCCUCAUAAGCUCGUCUUAU [salish99_TOv2_r3_065] (puzzle: Sensor v3, turn-off variant 2)
apparent KD of MS2 coat protein [1]: 18.6 nM
apparent KD of MS2 coat protein [2]: 423 nM
apparent KD of MS2 coat protein [3]: 15.4 nM

AGUACUAACACGGCUGUGUUAGUACAAUAAGCUUGUGAAACAUGAGGAUCACCCAUGUCCUCAUAAGCUCGUCUUAU [salish99_TOv2_r3_078] (puzzle: Sensor v3, turn-off variant 2)
apparent KD of MS2 coat protein [1]: 18 nM
apparent KD of MS2 coat protein [2]: 580 nM
apparent KD of MS2 coat protein [3]: 15.6 nM

AGUACUAACACGGGUGUGUUAGUACAAUAAGCUUGUGAAACAUGAGGAUCACCCAUGUCCUCAUAAGCUCGUCUUAU [salish99_TOv2_r3_075] (Eterna round: R96, puzzle: Sensor v3, turn-off variant 2)
apparent KD of MS2 coat protein (input ligand: FMN 200 uM): 15.3 nM
apparent KD of MS2 coat protein [4]: 503 nM
apparent KD of MS2 coat protein (input ligand: none): 16.6 nM

AGUACUAACACGGGUGUGUUAGUACAAUAAGCUUGUGAAACAUGAGGAUCACCCAUGUCCUCAUAAGCUCGUCUUAU [salish99_TOv2_r3_075] (puzzle: Sensor v3, turn-off variant 2)
apparent KD of MS2 coat protein [1]: 15.4 nM
apparent KD of MS2 coat protein [2]: 926 nM
apparent KD of MS2 coat protein [3]: 14.4 nM

AGUACUACCACGAAAGUGUUAGUACAAUAAGCUUGUGAAACAUGAGGAUCACCCAUGUCCUCAUAAGCUCGUCUUAU [salish99_TOv2_r3_021] (puzzle: Sensor v3, turn-off variant 2)
apparent KD of MS2 coat protein [1]: 16.7 nM
apparent KD of MS2 coat protein [2]: 524 nM
apparent KD of MS2 coat protein [3]: 16.5 nM

AGUACUAUCACGAAAGUGUUAGUACAAUAAGCUUGUGAAACAUGAGGAUCACCCAUGUCCUCAUAAGCUCGUCUUAU [salish99_TOv2_r3_019] (Eterna round: R96, puzzle: Sensor v3, turn-off variant 2)
apparent KD of MS2 coat protein (input ligand: FMN 200 uM): 15.8 nM
apparent KD of MS2 coat protein [4]: 467 nM
apparent KD of MS2 coat protein (input ligand: none): 17.8 nM

AGUACUAUCACGAAAGUGUUAGUACAAUAAGCUUGUGAAACAUGAGGAUCACCCAUGUCCUCAUAAGCUCGUCUUAU [salish99_TOv2_r3_019] (puzzle: Sensor v3, turn-off variant 2)
apparent KD of MS2 coat protein [1]: 16.9 nM
apparent KD of MS2 coat protein [2]: 868 nM
apparent KD of MS2 coat protein [3]: 15.7 nM

AGUACUAUGCGAGCUGACUUGCGUAGUGCAGCAGGUGUAACAUGAGGAUCACCCAUGUCCUCAUUUGCUCGUCUUAA [Mat - Sensor v3 - Turn-off var 2 - D9] (puzzle: Sensor v3, turn-off variant 2)
apparent KD of MS2 coat protein [1]: 240 nM
apparent KD of MS2 coat protein [2]: 288 nM
apparent KD of MS2 coat protein [3]: 235 nM

AGUACUCUCACGAAAGUGAGAGUACAAAAAGCAAGUGAAACAUGAGGAUCACCCAUGUCCUCAUUUGCUCGUCUUAU [Mat - Sensor v2 -ver2- JL mod - D88] (Eterna round: R96, puzzle: Sensor v2, turn-off variant 2)
apparent KD of MS2 coat protein (input ligand: FMN 200 uM): 11.8 nM
apparent KD of MS2 coat protein [4]: 413 nM
apparent KD of MS2 coat protein (input ligand: none): 14.4 nM

AGUAGGUCUACCUUGGUGGAUCUGCAUUUUUGCAGGUGUACAUGAGGAUCACCCAUGUCCUCAUUUGCUCGUCUUAU [JL turnoff v2 99.30] (Eterna round: R96, puzzle: Sensor v3, turn-off variant 2)
apparent KD of MS2 coat protein (input ligand: FMN 200 uM): 555 nM
apparent KD of MS2 coat protein [4]: 599 nM
apparent KD of MS2 coat protein (input ligand: none): 508 nM

Source: the supplement of paper PMC9170038
